The text below walks through data of paper PMC9975500, “High level expression of nicotinamide nucleoside kinase from Saccharomyces cerevisiae and its purification and immobilization by one-step method” (Frontiers in Bioengineering and Biotechnology, 2023).

Substrate in series [1]: Nc1ncnc2c1ncn2[C@@H]1O[C@H](COP(=O)(O)OP(=O)(O)OP(=O)(O)O)[C@@H](O)[C@H]1O
The experiment in a line: HPLC of NMN formed, Michaelis-Menten fit. It counts as biochemical, Saccharomyces cerevisiae. The following applies: free enzyme, NR 1 mM, 10 mM MgCl2, 20 mM Tris-HCl pH 5.8, optimal temperature (30 °C for free enzyme).

Substrate in the series “purified protein”: NC(=O)c1ccc[n+]([C@@H]2O[C@H](CO)[C@@H](O)[C@H]2O)c1
The experiment in a line: purified protein. The following applies: free enzyme, ATP 1 mM, 10 mM MgCl2, 20 mM Tris-HCl pH 5.8, optimal temperature (30 °C for free enzyme).

B1: reScNRK1 (recombinant nicotinamide riboside kinase1; nicotinamide nucleoside kinase1) (Saccharomyces cerevisiae S288C) (protein)
chain: MTSKKVILVALSGCSSSGKTTIAKLTASLFTKATLIHEDDFYKHDNEVPVDAKYNIQNWDSPEALDFKLFGKELDVIKQTGKIATKLIHNNNVDDPFTKFHIDRQVWDELKAKYDSINDDKYEVVIVDGFMIFNNTGISKKFDLKILVRAPYEVLKKRRASRKGYQTLDSFWVDPPYYFDEFVYESYRANHAQLFVNGDVEGLLDPRKSKNIKEFINDDDTPIAKPLSWVCQEILKLCKD
notes: free enzyme
As a reminder, the Km is the concentration of substrate that gives half-maximal velocity. What is called Vmax is the top rate of the reaction or transport when substrate is in excess. For B1, in series [1], the Km turned out to be 54.27 mM and the Vmax came to 137 µmol/min/mg. Moreover, in the series “purified protein”, the Km amounted to 18.69 mM and the Vmax came out at 98.4 µmol/min/mg.
